These results are taken from patent US20230190801A1.

The experiment addresses SLAMF7 (human) (UniProt Q9NQ25). Nature of the experiment: cell-based or functional assay.

B1: elotuzumab (antibody, INN chains, looked up, V domains shown)
VH: EVQLVESGGGLVQPGGSLRLSCAASGFDFSRYWMSWVRQAPGKGLEWIGEINPDSSTINYAPSLKDKFIISRDNAKNSLYLQMNSLRAEDTAVYYCARPDGNYWYFDVWGQGTLVTVSS
VL: DIQMTQSPSSLSASVGDRVTITCKASQDVGIAVAWYQQKPGKVPKLLIYWASTRHTGVPDRFSGSGSGTDFTLTISSLQPEDVATYYCQQYSSYPYTFGQGTKVEIKR
Molecule B1 had a g-NK cell-mediated cytotoxicity against elotuzumab-treated MM cell lines, correlation with SLAMF7 expression of 0.96 R^2.
